Results taken from US20090142365A1 (HEALTH RESEARCH, published 2009).

Biological target: Luciferase (UniProt P08659 1-550 = luciferase, limits assumed)
Experiment: pull-down: 1:1 mix, immunoprecipitation with anti-OVA antibody, western blot with anti-luciferase antibody
Procedure: Lanes with no chaperone (1st lane) were included as controls. […] In the bottom panel, WB was performed with anti-luciferase to confirm that OVA pull-down was successful.
After SDS-PAGE (10%) electrophoresis, western blot analysis was performed using anti-luciferase (Promega, Madison, Wis.) or anti-gp100 antibody (Santa Cruz Biotechnology, Santa Cruz, Calif.).

Luciferase, sequence (P08659 whole entry): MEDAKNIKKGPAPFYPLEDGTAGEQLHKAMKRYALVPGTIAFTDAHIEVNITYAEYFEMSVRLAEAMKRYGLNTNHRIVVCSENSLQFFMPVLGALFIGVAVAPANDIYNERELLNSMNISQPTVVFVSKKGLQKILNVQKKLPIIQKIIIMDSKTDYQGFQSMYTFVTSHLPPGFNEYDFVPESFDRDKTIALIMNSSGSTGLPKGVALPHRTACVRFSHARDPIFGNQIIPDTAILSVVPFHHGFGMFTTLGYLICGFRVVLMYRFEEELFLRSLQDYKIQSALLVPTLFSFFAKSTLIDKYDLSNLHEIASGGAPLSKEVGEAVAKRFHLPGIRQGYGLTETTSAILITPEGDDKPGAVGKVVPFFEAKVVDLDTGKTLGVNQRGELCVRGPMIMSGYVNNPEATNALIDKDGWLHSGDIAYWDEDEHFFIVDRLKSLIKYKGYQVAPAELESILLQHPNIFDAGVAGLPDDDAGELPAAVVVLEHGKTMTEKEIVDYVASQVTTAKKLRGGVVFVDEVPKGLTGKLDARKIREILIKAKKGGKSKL

B1: Ovalbumin (other, UniProt P01012 2-386, looked up)
chain: GSIGAASMEFCFDVFKELKVHHANENIFYCPIAIMSALAMVYLGAKDSTRTQINKVVRFDKLPGFGDSIEAQCGTSVNVHSSLRDILNQITKPNDVYSFSLASRLYAEERYPILPEYLQCVKELYRGGLEPINFQTAADQARELINSWVESQTNGIIRNVLQPSSVDSQTAMVLVNAIVFKGLWEKAFKDEDTQAMPFRVTEQESKPVQMMYQIGLFRVASMASEKMKILELPFASGTMSMLVLLPDEVSGLEQLESIINFEKLTEWTSSNVMEERKIKVYLPRMKMEEKYNLTSVLMAMGITDVFSSSANLSGISSAESLKISQAVHAAHAEINEAGREVVGSAEAGVDAASVSEEFRADHPFLFCIKHIATNAVLFFGRCVSP
notes: Negative control protein
B1: no binding.
